# Measured values: article PMC7129694 (Clinical Microbiology and Infection, 2005)
# Molecular target: Purified recombinant rClfB protein (clumping factor B of Staphylococcus aureus) (Staphylococcus aureus, UniProt O86476 45-877)
# Sequence (O86476 45-877): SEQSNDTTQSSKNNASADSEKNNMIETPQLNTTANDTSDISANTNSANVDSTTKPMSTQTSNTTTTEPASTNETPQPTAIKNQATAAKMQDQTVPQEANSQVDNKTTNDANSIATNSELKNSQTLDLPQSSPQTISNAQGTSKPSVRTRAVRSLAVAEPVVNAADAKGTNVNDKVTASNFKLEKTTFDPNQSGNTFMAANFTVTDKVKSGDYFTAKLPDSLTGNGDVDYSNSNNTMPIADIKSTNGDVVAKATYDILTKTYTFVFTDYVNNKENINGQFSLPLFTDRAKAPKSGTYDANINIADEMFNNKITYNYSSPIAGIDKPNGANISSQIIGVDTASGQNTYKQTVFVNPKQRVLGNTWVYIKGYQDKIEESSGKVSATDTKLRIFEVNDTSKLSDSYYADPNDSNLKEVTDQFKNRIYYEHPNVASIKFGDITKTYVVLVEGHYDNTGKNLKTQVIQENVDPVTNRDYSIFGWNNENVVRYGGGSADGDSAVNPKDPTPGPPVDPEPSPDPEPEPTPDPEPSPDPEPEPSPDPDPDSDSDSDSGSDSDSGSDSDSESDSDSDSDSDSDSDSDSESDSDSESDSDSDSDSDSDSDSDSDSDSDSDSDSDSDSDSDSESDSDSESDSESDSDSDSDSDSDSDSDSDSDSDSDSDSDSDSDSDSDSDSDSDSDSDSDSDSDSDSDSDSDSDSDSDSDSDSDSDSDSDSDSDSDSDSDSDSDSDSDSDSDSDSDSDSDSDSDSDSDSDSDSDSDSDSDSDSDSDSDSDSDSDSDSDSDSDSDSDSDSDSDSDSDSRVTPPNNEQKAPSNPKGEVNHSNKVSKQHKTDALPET
binder,measurement,value
"Purified recombinant human cytokeratin 10 (natural protein, UniProt P13645 1-584, looked up) MSVRYSSSKHYSSSRSGGGGGGGGCGGGGGVSSLRISSSKGSLGGGFSSGGFSGGSFSRGSSGGGCFGGSSGGYGGLGGFGGGSFRGSYGSSSFGGSYGGIFGGGSFGGGSFGGGSFGGGGFGGGGFGGGFGGGFGGDGGLLSGNEKVTMQNLNDRLASYLDKVRALEESNYELEGKIKEWYEKHGNSHQGEPRDYSKYYKTIDDLKNQILNLTTDNANILLQIDNARLAADDFRLKYENEVALRQSVEADINGLRRVLDELTLTKADLEMQIESLTEELAYLKKNHEEEMKDLRNVSTGDVNVEMNAAPGVDLTQLLNNMRSQYEQLAEQNRKDAEAWFNEKSKELTTEIDNNIEQISSYKSEITELRRNVQALEIELQSQLALKQSLEASLAETEGRYCVQLSQIQAQISALEEQLQQIRAETECQNTEYQQLLDIKIRLENEIQTYRSLLEGEGSSGGGGRGGGSFGGGYGGGSSGGGSSGGGHGGGHGGSSGGGYGGGSSGGGSSGGGYGGGSSSGGHGGSSSGGYGGGSSGGGGGGYGGGSSGGGSSSGGGYGGGSSSGGHKSSSSGSVGESSSKGPRY",Kd,1400 to 1700 nM
